In the supplement of paper PMC10567573:
± gives the standard deviation.

Assay: protein stability index of a GFP-peptide fusion (GPS, HEK-293T) (PSI 1-6); higher = more stable
[1] = treatment: DMSO, c terminus: a fixed tail appended
[2] = treatment: MLN4924 1 uM, 8 h, c terminus: a fixed tail appended
[3] = treatment: DMSO, c terminus: native
[4] = treatment: MLN4924 1 uM, 8 h, c terminus: native
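Also: 24-mer peptide tiles fused after GFP, lentivirally expressed, FACS-sorted into six equal bins by GFP/DsRed ratio, decoded by Illumina sequencing, PSI is the read-weighted mean bin number.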

| Sequence | protein stability index [1] | protein stability index [2] | protein stability index [3] | protein stability index [4] |
| --- | --- | --- | --- | --- |
| CFKAKLHRKRGSQPPDMASALTDR [RSPH3] | 3.66 ± 0.26 | 3.95 ± 0.28 |  |  |
| GSPQQPGLSAPHSRQIPAPQGAVL [KISS1] | 4.3 ± 0.15 | 4.61 ± 0.28 |  |  |
| PNILFYASTVLKSVGFQSNEAASL [SLC2A12] | 2.25 ± 0.33 | 2.38 ± 0.15 |  |  |
| LDDEDDDEEDCPNPEEYNLDEPNA [SRPK2] | 5.57 ± 0.22 | 5.58 ± 0.24 |  |  |
| LPNYNWNSFGLRFGKREAAPGNHG [KISS1] | 3.14 ± 0.36 | 3.36 ± 0.42 |  |  |
| CGRSEVRPVAPRRPRDAVGQRGAQ [SMAD6] | 4.37 ± 0.24 | 4.57 ± 0.11 |  |  |
| TNPDLYPVRRIDGLTDVSQIITVT [IQUB] | 2.86 ± 0.26 | 3.06 ± 0.26 |  |  |
| EAVRQEMRRQEPLPPPPPPSRGGN [WAS] | 5.18 ± 0.21 | 5.19 ± 0.11 |  |  |
| DGKCAYRASYSDGKLKAPPKPCAG [MLH1] | 4.11 ± 0.3 | 4.06 ± 0.056 |  |  |
| EELMLVHSLEYIDLMETTQYMNEG [HDAC6] | 3.5 ± 0.2 | 3.41 ± 0.3 |  |  |
| FLTHFILMNDVIDTSGFPDLSDNR [FBXO33] | 2.41 ± 0.47 | 2.27 ± 0.43 |  |  |
| RIASRAIDNAADLLIFGKELSAIG [SNX8] | 2.34 ± 0.28 | 2.44 ± 0.38 |  |  |
| ARRQWRDECLMRLAKLKSQVQPQ [CRYL1] |  |  | 2.9 ± 0.77 | 3.33 ± 0.73 |
| TPLLMAARYGHLDMVEFLLEQCSA [FEM1C] | 2.28 ± 0.41 | 2.26 ± 0.24 |  |  |
| EILEIDDLDAIVPAVKKLKVLSY [CEP70] |  |  | 2.87 ± 0.8 | 3.1 ± 0.041 |
| GVFVGVISFGQLSDRFGRKKVYLT [SLC22A15] | 2.82 ± 0.43 | 2.7 ± 0.39 |  |  |
| SPEKFQIEANFPRRVLPCIPSEEW [FAF2] | 3.75 ± 0.12 | 3.79 ± 0.29 |  |  |
| LEKEQVAHIRAERDILVEADGAWV [STK38L] | 3.8 ± 0.31 | 3.916 ± 0.026 |  |  |
| KELGTLIPKSSDPEMRWNKGTILK [TFE3] | 4.06 ± 0.28 | 4.01 ± 0.14 |  |  |
| LFSEASECMLLVFGIDVKEVDPTG [MAGEA10] | 2.3 ± 0.69 | 2.54 ± 0.21 |  |  |
| DSCDRLTQSWSSQSSFNSLQRVPS [ETS1] | 3.99 ± 0.24 | 4.07 ± 0.23 |  |  |
| TQSDEENGRACEMNGEECAEDLRM [IKZF1] | 5.66 ± 0.28 | 5.66 ± 0.19 |  |  |
| AAARIRAQVPDTRWSRVGGQRFYS | 2.713 ± 0.004 | 3 ± 0.61 |  |  |

| Sequence | protein stability index [1] | protein stability index [2] | protein stability index [3] | protein stability index [4] |
| --- | --- | --- | --- | --- |
| YDPRFNSWIQLPPMQERRASFYAC [KLHL14] | 2.14 ± 0.27 | 2.22 ± 0.17 |  |  |
| TCICYLCMFQEHKNHSTVTVEEAK [TRIM29] | 2.24 ± 0.43 | 2.67 ± 0.51 |  |  |
| GLEDAGLDPHFVPTELWPQEAVPL [TEX19] | 4.44 ± 0.13 | 4.62 ± 0.12 |  |  |
| IIHHMRLQAKALQLIVTARTTRGL [INTS4] | 2.5 ± 0.58 | 2.26 ± 0.28 |  |  |
| QNPAGELEGFQAQGHPPSLFPPKA [ATE1] | 4.66 ± 0.075 | 4.82 ± 0.17 |  |  |
| YIHFFHTVLKQIAPEYFEKNEPYL [DENND6A] | 1.96 ± 0.5 | 2.77 ± 0.53 |  |  |
| NDPSQSEVMGEPHLMVEYKLGLL [POMP] |  |  | 4.16 ± 0.22 | 4.36 ± 0.21 |
| QHVPEELDLSSSSQMSPLSLYGEN [ATF6] | 4.97 ± 0.19 | 5 ± 0.18 |  |  |
| KKYRLTEHERAHRGEKPHGCSLCG [ZNF649] | 3.72 ± 0.37 | 3.85 ± 0.36 |  |  |
| LPQDEGGGGYSSVRYSDCCERVVI [KCNA4] | 2.41 ± 0.3 | 2.77 ± 0.53 |  |  |
| KAQRDYELKKAAYDIEVNTRRAQA [FLOT1] | 4.17 ± 0.11 | 4.44 ± 0.085 |  |  |
| ADVNAQSSTGNTALTYACAGGYVD [ANKRD17] | 4.21 ± 0.39 | 4.49 ± 0.16 |  |  |
| SELQREMEALAAETNLLLAQKQRL [TEKT4] | 4 ± 0.53 | 4.2 ± 0.13 |  |  |
| WGPWGPWGDCSRTCGGGVQFSSRD [ADAMTS4] | 2.46 ± 0.36 | 2.16 ± 0.14 |  |  |
| RRSPRPDHPGTPPHKTFRKLRLFD [WEE1] | 3.4 ± 0.078 | 3.71 ± 0.34 |  |  |
| RRHLQFWKSHLRNVQRPLLQAPFL [RHOBTB2] | 2.29 ± 0.38 | 2.21 ± 0.3 |  |  |
| GEEAVTLVEDMQRELGRLRQQVTN [ZNF263] | 4.1 ± 0.14 | 4.02 ± 0.29 |  |  |
| QLLKNNEKLITWLNKELNENQLVR [SASS6] | 1.88 ± 0.62 | 2.08 ± 0.38 |  |  |
| KGTEKQTTSETQKSVQCGTWTKHA [NETO1] | 4.84 ± 0.26 | 4.82 ± 0.13 |  |  |
| GATPSYHWDLAELLPNQSHGNQSA [SLC22A15] | 4.06 ± 0.19 | 4.22 ± 0.33 |  |  |
| NFKPRGYSECIVTVGGEERVSRKP [GAN] | 4.14 ± 0.28 | 4.32 ± 0.39 |  |  |
| VDLFKQLCEKEPLGNVLFSPICLS [SERPINB5] | 1.98 ± 0.18 | 2.08 ± 0.41 |  |  |
| VDRTHALMKKIGQCPMRVQKEVAG [CRYL1] | 3.45 ± 0.36 | 3.65 ± 0.35 |  |  |

| Sequence | protein stability index [1] | protein stability index [2] | protein stability index [3] | protein stability index [4] |
| --- | --- | --- | --- | --- |
| AMCVRYDGVEVDDSYCDALTRPEP [ADAMTSL2] | 4.37 ± 0.33 | 4.31 ± 0.28 |  |  |
| TFTEHPMKYTSEKFLEICKLSGFM [TPRG1] | 2.35 ± 0.48 | 2.22 ± 0.5 |  |  |
| FDLNNLDPELKNLFDMCGISEAQL [WASL] | 2.62 ± 0.55 | 2.83 ± 0.69 |  |  |
| FGKDFRKGLLKKGACYGDDACFVA [PPTC7] | 2.24 ± 0.31 | 2.53 ± 0.35 |  |  |
| WFQRQYLSTPDSQSLRCDLIRYIC [INTS3] | 2.25 ± 0.35 | 2.28 ± 0.44 |  |  |
| MLLRKFAESKGTGREKPGPLDFEA [FCHO1] | 2.84 ± 0.034 | 2.86 ± 0.5 |  |  |
| KNQGEENGFPDSTGDPLPEISKDN [EDARADD] | 5.5 ± 0.15 | 5.54 ± 0.067 |  |  |
| EREPVRGQCLDSTDQLEFTVEPRL [RTN2] | 4.78 ± 0.2 | 4.71 ± 0.2 |  |  |
| VHNAMDNYECNLYTFLYLVCISTK [FEM1B] | 2.82 ± 0.59 | 2.2 ± 0.53 |  |  |
| SLSVRHRQVKHYRIFRLPNNWYYI [SLA] | 2.29 ± 0.7 | 2.58 ± 0.49 |  |  |
| VERILARGENLEHLRNKTEDLEAT [VAMP8] | 5.33 ± 0.2 | 5.37 ± 0.14 |  |  |
| PYARIQQSRRQCHAEEDQSQVPEA [SMIM2] | 5.3 ± 0.19 | 5.19 ± 0.14 |  |  |
| KVFEELLLDADWSINAGSWMWLSC [CRY1] | 2.28 ± 0.49 | 2.58 ± 0.27 |  |  |
| GAAEEARRLEQRWGFGLEELYGLA [ACBD3] | 2.77 ± 0.37 | 2.99 ± 0.12 |  |  |
| SITEMFGEFRTGKTQICHTLAVTC [RAD51] | 2.59 ± 0.33 | 2.05 ± 0.48 |  |  |
| CSRQFPEFQERARKRIRTYLKSCR [NOL4L] | 3.25 ± 0.15 | 3.36 ± 0.2 |  |  |
| FSAPDPPRPRPVSLSLRLPHQPVT [SMTNL2] | 3.77 ± 0.12 | 3.91 ± 0.27 |  |  |
| APGADVKVHRARKTMPKSVVGLHA [EHMT1] | 3.7 ± 0.18 | 3.91 ± 0.41 |  |  |
| NIVFGTGPRVGEALVSHPEVPLIS [ALDH8A1] | 2.9 ± 0.21 | 2.83 ± 0.27 |  |  |
| RQKEVDFCISLLRERFMECLMIGR [INTS3] | 2.52 ± 0.74 | 2.28 ± 0.13 |  |  |
| CAACKTPIRNRAFYMEEGVPYCER [PDLIM7] | 2.93 ± 0.3 | 3.38 ± 0.18 |  |  |
| EVDWEYFYGLLFTSENLKLVHIVC [DFFB] | 3.34 ± 0.39 | 2.56 ± 0.94 |  |  |
| RTYFHEFGHVMHQICAQVSFFFPP [NLN] | 2.43 ± 0.43 | 3.41 ± 0.054 |  |  |

| Sequence | protein stability index [1] | protein stability index [2] | protein stability index [3] | protein stability index [4] |
| --- | --- | --- | --- | --- |
| LYPDLSCPEGLEELLSAPPPDLGA [SPSB2] | 4.27 ± 0.14 | 4.46 ± 0.12 |  |  |
| GVCGDRATGFHFNAMTCEGCKGFF [VDR] | 2.28 ± 0.13 | 2.38 ± 0.19 |  |  |
| RQLLRDFQSRLPYQYLHYALFKAN [P3H4] | 2.49 ± 0.29 | 2.16 ± 0.43 |  |  |
| SRLNLTGLGYFSCHSHTVVQDYSY [CCDC3] | 2.12 ± 0.37 | 2.18 ± 0.11 |  |  |
| PEHGDRVAELFCRRCRRCVCALCP [TRIM14] | 3.29 ± 0.55 | 3.5 ± 0.1 |  |  |
| STDPNIVRKKERGREEKCVWKHGI [TAF7L] | 3.31 ± 0.37 | 3.51 ± 0.26 |  |  |
| IQYLTENIWASQSVLSACDNLSDL [IQUB] | 2.49 ± 0.34 | 2.49 ± 0.3 |  |  |
| MSSIICEGDTVSQELLDTVLVNLV [PDS5B] | 2.24 ± 0.22 | 2.14 ± 0.53 |  |  |
| VHRKSCSTGEAGTDGDHNVYPRPP [ZC2HC1C] | 4.29 ± 0.33 | 4.45 ± 0.37 |  |  |
| EGLAFLVSCPEGRADCASESACSS [PWWP2B] | 3.6 ± 0.41 | 3.71 ± 0.24 |  |  |
| WMHTPEALSKHFIPYNAKFLGSTE [GULP1] | 2.27 ± 0.12 | 2.3 ± 0.16 |  |  |
| PGGLVGSADVVSPSGHSDAQTLAM [PPFIA4] | 4.57 ± 0.22 | 4.43 ± 0.93 |  |  |
| VESSLDKVVLSDAYAHPQQKVAVY [TRADD] | 2.88 ± 0.29 | 3.26 ± 0.12 |  |  |
| SLKDHKVSFLRSGTKLIFRRRPRQ [C2CD2L] | 3.24 ± 0.49 | 3.44 ± 0.55 |  |  |
| RPRRRDGPEHATRLNGTAKGERRR [DVL3] | 5.06 ± 0.38 | 5.08 ± 0.42 |  |  |
| YQQLKLEGPGEQETKLDLISKGEE [SLC29A1] | 5.25 ± 0.28 | 5.28 ± 0.13 |  |  |
| LFAELGYFTDTDELQLEAANETYE [ATF6] | 4.04 ± 0.1 | 4.15 ± 0.24 |  |  |
| SSHHSHSYIGLPYADHNYGARPPP [KMT2E] | 3.46 ± 0.16 | 3.7 ± 0.27 |  |  |
| ILVTKVEEPSKYGVVVCEADTGRI [GMPPB] | 2.75 ± 0.18 | 2.91 ± 0.22 |  |  |
| AREGRETLKCLSHHVADAYTSSQK [TOR1AIP2] | 4.48 ± 0.35 | 4.44 ± 0.37 |  |  |
